Measurements as given in publication PMC5650471.

Molecular target: wild-type human ADORA2A adenosine A2A receptor (construct terminated at residue 316, N154Q, C-terminal 8x His and Protein C tags) (human) (UniProt P29274)
Sequence of UniProt P29274 (P29274 1-316 N154Q): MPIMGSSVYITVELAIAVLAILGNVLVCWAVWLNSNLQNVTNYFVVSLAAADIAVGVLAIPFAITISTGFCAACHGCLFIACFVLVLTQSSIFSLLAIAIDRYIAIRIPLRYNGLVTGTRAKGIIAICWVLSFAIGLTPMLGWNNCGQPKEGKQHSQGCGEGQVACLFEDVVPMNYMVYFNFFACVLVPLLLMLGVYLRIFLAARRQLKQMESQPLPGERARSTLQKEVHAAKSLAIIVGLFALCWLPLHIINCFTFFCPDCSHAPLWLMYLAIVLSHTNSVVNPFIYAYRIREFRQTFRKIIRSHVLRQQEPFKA

[35S]GTPγS binding to perdeuterated purified A2AR reconstituted with purified Gs heterotrimer in phospholipid vesicles; reduction of basal activity by inverse agonist ZM241385: 50%
[35S]GTPγS binding to perdeuterated purified A2AR reconstituted with purified Gs heterotrimer in phospholipid vesicles; stimulation by saturating full agonist NECA: 8 fold
Substance: Gs heterotrimer (complex)
